The values below come from patent US20260216095A1, “NANOSHEET-HYDROGEL COMPOSITES AND METHODS OF US” (Rutgers, The State University of New Jersey, priority 2023, published 2026).

The assay deals with aggrecan (ACAN). The experiment in a line: Rat nucleotomy model, immunohistochemistry for aggrecan. Type of assay: in vivo, Sprague-Dawley rats. Particulars: six weeks. The procedure:
Animal Model Nucleotomy: In total, eight-weeks-old female Sprague-Dawley rats (220-240 g) were purchased from Orient Bio Inc., Korea, and were acclimatized for a week at a life/dark cycle of 12/12 h (temperature; 22±1° C. and relative humidity; 50%±1%) and free approach to food and water. The animal experiments were performed according to the direction approved by the Institutional Animal Care and Use Committee (IACUC) of CHA Bundang Medical Center (IACUC 200141). At the beginning of the surgery, the peritoneal site was sterilized with 70% alcohol. Afterward, rats were thoroughly anesthetized with a general anesthesia mixture of Zoletil® (50 mg/kg Virbac Laboratories, France) and Rompun® (10 mg/kg, Bayer, Korea) injected intraperitoneally. […]
Immunohistochemistry: After six weeks of implantation, rats were euthanized via excess carbon dioxide inhalation and coccygeal discs were collected, and immunohistochemical analysis was performed for aggrecan (disc matrix component), collagen type II (a component of disc NP matrix), CGRP (pain-marker), Iba1 (pan-macrophage), CD86 (M1-macrophage) and CD163(M2-macrophage). […] The sections were mounted and finally examined using a fluorescence microscope (Zeiss 880, Germany and Leica SP5, Germany). The percentage of the positive area and cell number relative to DAPI was calculated by using ImageJ Software.

B1: GDF-5 alone: growth differentiation factor 5 (Peprotech, Catalog No. 120-01), given as saline solution (protein, UniProt P43026 382-501, looked up)
Growth/differentiation factor …: APLATRQGKRPSKNLKARCSRKALHVNFKDMGWDDWIIAPLEYEAFHCEGLCEFPLRSHLEPTNHAVIQTLMNSMDPESTPPTCCVPTRLSPISILFIDSANNVVYKQYEDMVVESCGCR
Consider B1, for which the “aggrecan expression (IHC)” value is “decreased aggrecan expression”.
